Consider two molecules from patent US20140134179A1 (Novartis, published 2014).

Assay [1] concerns the target T1, mouse TEM8 on 293 cells (293/mTEM8) (mouse, UniProt Q9CZ52 31-562).
T1 construct: whole, on cells
The assay is described as follows: flow cytometry on 293/mTEM8 cells (FIG. 8C).

Assay [2] deals with T2, flag-tagged human TEM8 on 293 cells (293/Flag-hTEM8) (human, UniProt Q9H6X2 33-564).
T2 construct: also called 293/Flag-huTEM8; 293/hFlag-TEM8
The assay is described as follows: immunofluorescence and flow cytometry on 293/Flag-hTEM8 cells. On the technique in general: A flow cytometer gives signals particle by particle.

The target of assay [3] is T3, hTEM8(ED)-Fc fusion protein (human; mouse, UniProt Q9H6X2 33-321).
T3 construct: also called TEM8-Fc; human TEM8-Fc
T3 sequence: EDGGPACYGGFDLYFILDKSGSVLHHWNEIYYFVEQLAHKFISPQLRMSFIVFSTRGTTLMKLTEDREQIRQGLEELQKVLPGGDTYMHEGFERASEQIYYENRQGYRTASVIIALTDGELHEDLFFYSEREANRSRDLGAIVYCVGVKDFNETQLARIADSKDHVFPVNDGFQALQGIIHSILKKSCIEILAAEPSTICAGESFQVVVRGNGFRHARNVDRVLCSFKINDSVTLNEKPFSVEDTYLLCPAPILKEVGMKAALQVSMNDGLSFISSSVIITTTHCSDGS
Kind of assay: ELISA on biotinylated human TEM8-Fc captured on neutravidin. Background: An ELISA detects its analyte on a solid surface through an enzyme-linked reagent.

For assay [4], the target named is T2, flag-tagged human TEM8 on 293 cells …. Kind of assay: flow cytometry titration on 293/Flag-hTEM8 cells, FITC anti-mouse secondary (FIG. 9B).

B1: L1 Fab (Fab, V domains shown)
VH: QVQLVESGGGLVQPGGSLRLSCAASGFTFNSYAMSWVRQAPGKGLEWVSLISSGSSTYYADSVKGRFTISRDNSKNTLYLQMNSLRAEDTAVYYCARAGFKFDNWGQGTLVTVSS
VL: DIELTQPPSVSVAPGQTARISCSGDSIPNYSVSWYQQKPGQAPVLVIYADSNRPSGIPERFSGSNSGNTATLTISGTQAEDEADYYCQSYDNTSPDLVFGGGTKLTVLG
B1: the binding result in assay [1], in assay [2] and in assay [3] was “binds” each time.

B2: L5-mIgG2a (antibody, V domains shown)
VH: QVQLVESGGGLVQPGGSLRLSCAASGFTFNSYGLSWVRQAPGKGLEWVSNISSNGSYTYYADSVKGRFTISRDNSKNTLYLQMNSLRAEDTAVYYCARAGYGLFDVWGQGTLVTVSS
VL: DIELTQPPSVSVAPGQTARISCSGDKLREYYVHWYQQKPGQAPVLVIYGDNKRPSGIPERFSGSNSGNTATLTISGTQAEDEADYYCSSWAGSRSGTVFGGGTKLTVL
notes: also called L5 full IgG
As usually defined, the EC50 is the concentration giving half of the maximal effect. Low readings indicate greater potency, high ones weaker potency. With B2, the EC50 in assay [4] was 2.8 nM.
